# T1: human ULBP-2-Fc (R&D systems) (human, UniProt Q9BZM5 26-217, limits assumed)
# T1 construct: Bought; not shown: Fc of the bought fusion protein
# T1 sequence (looked up): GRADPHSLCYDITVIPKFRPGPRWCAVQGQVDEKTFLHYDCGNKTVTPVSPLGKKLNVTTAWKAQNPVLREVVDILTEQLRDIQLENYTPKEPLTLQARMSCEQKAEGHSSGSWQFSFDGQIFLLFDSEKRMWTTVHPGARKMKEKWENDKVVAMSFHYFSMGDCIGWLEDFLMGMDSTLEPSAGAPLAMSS
# T2: human ULBP-3-Fc (R&D systems) (human, UniProt Q9BZM4 30-217, limits assumed)
# T2 construct: Bought; not shown: Fc of the bought fusion protein
# T2 sequence (looked up): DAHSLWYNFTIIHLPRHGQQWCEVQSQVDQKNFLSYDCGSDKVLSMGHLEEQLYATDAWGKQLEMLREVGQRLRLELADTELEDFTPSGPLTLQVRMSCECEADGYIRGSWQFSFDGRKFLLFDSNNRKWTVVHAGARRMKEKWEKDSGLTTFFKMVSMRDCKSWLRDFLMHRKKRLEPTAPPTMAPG
# T3: human ULBP-1-Fc (R&D systems) (human, UniProt Q9BZM6 26-216, limits assumed)
# T3 construct: Bought; not shown: Fc of the bought fusion protein
# T3 sequence (looked up): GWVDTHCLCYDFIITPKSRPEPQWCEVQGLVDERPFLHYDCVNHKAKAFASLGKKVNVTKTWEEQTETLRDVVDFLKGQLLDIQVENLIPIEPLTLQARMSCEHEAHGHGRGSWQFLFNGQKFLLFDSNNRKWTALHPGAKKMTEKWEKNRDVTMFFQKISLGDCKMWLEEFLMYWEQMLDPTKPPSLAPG
# T4: MICA*004 expressed at the cell surface (human, UniProt Q29983 24-297)
# T4 construct: also called C1R-MICA*004; C1R-MICA*04
# T4 chain: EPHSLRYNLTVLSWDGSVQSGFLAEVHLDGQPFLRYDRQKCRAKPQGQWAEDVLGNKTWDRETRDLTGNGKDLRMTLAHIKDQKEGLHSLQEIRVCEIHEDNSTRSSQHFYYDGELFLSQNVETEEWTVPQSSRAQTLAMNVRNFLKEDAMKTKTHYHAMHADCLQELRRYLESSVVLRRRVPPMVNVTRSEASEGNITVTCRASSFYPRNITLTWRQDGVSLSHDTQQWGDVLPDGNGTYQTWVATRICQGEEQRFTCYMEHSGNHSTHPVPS
# T5: MICA*001 expressed at the cell surface (human, UniProt Q29983 24-297)
# T5 construct: the protein on cells also has its transmembrane and cytoplasmic parts (Genbank AAB41060); also called C1R-MICA*001; C1R-MICA*01
# T5 sequence: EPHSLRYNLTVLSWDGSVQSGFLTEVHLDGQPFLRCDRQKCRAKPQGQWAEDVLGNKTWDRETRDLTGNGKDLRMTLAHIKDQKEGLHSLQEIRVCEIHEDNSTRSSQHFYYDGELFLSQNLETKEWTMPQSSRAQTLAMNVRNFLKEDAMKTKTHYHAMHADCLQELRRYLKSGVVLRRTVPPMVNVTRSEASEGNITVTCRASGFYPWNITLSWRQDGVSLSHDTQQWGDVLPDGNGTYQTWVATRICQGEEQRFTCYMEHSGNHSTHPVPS
# B1: CHG1-M-MIA-20C6 (antibody, V domains shown)
# VH: QITLKESGPGILKPSQTLSLTCSFSGFSLSTSGMGVGWIRQPSGKGLEWLAHIWWDDDKYYNPSLKSQLTISKDTSRNQVFLRITSVDTADTATYYCARRTQGYFDYWGQGTTLTVSS
# VL: DIVMTQSPATLSVTPGDRVSLSCRASQSISDYLHWYQQKSHESPRLLIKYASQSISGIPSRFSGSGSGSDFTLSINSVEPEDVGVYYCQNGHSFPWTFGGGTKLEIKR
# notes: also called chimeric anti-MICA 20C6
# B2: CHG1-M-MIA-6E4 (antibody, V domains shown)
# VH: EVQLVESGGALVKPGGSLKLSCAASGFTFSYYAMSWVRQTPEKRLEWVATISRGGNYIYYTDSVKGRFTISRDNAKNTLYLQMTSLRSEDTAMFYCASISDYDGAWLAYWGQGTTLTVSS
# VL: DVLMTQTPLSLPVSLGDQASISCRSSQSIIHTNGNTYLEWYLQKPGQSPKLLIYKISNRFSGVPDRFSGSGSGTDFTLKISRVEAEDLGVYYCFQGSHVPWTFGGGTKLEIKR
# notes: also called chimeric anti-MICA 6E4
# B3: CHG1-M-MIA-16A8 (antibody, V domains shown)
# VH: EVQLVESGGGLVKPGGSLKLSCAASGFTFSRYAMSWVRQTPEKRLEWVATIFSGGSYTYYPDSVKGRFTISRDNANNTLYLQMSSLKAEDTAMYFCARPNWERTFDYWGQGTTLTVSS
# VL: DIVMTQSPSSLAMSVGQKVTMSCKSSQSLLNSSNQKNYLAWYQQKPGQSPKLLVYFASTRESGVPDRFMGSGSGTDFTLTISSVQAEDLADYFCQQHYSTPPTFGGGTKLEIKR
# notes: also called CHG1-M-MIA2-16A8; chimeric anti-MICA 16A8
# Molecular target: T1, human ULBP-2-Fc (R&D systems)
# Assay: SPR, antibody injected over immobilized ULBP-2-Fc
# Experimental: (§1) For cross-binding study, the human ULBP-1-Fc (R&D systems*), MICB-Fc (*), ULBP-2-Fc (*) and ULBP-3-Fc (*) recombinant proteins were covalently immobilized respectively on the flow cell one to four of a CM5 sensorchip. Anti-MICA antibodies (at a constant concentration of 10 μg/ml) were injected for 2 minutes at a flow rate of 10 μl/min onto the four flow cells in parallel. After each cycle, Sensorchip was regenerated by a five second injection of appropriate regeneration buffer.
row,binding result,Binder
1,no binding (tested: 10 µg/ml),B1
2,no binding (tested: 10 µg/ml),B2
3,no binding (tested: 10 µg/ml),B3

# Molecular target: T2, human ULBP-3-Fc (R&D systems)
# Assay: SPR, antibody injected over immobilized ULBP-3-Fc
# Experimental: as §1
row,binding result,Binder
1,no binding (tested: 10 µg/ml),B1
2,no binding (tested: 10 µg/ml),B2
3,no binding (tested: 10 µg/ml),B3

# Molecular target: T3, human ULBP-1-Fc (R&D systems)
# Assay: SPR, antibody injected over immobilized ULBP-1-Fc
# Experimental: as §1
row,binding result,Binder
1,no binding (tested: 10 µg/ml),B1
2,no binding (tested: 10 µg/ml),B2
3,no binding (tested: 10 µg/ml),B3

# Molecular target: T4, MICA*004 expressed at the cell surface
# Assay: flow cytometry on C1R transfectant cells, 4-parameter logistic fit
# Experimental: (§2) The binding of antibodies obtained from the first, second and third immunization series (including CHG1-M-MIA-19E9, CHG1-M-MIA-9C10, CHG1-M-MIA-6E4, CHG1-M-MIA-20C6, CHG1-M-MIA-16A8, CHG1-M-MIA-12A10, CHG1-M-MIA-10A7, CHG1-M-MIA-18E8, CHG1-M-MIA-10F3, CHG1-M-MIA-15F9 and CHG1-M-MIA-14B4) were tested for binding to MICA-expressing CR1 transfectant cells C1R-MICA*001, C1R-MICA*004, C1R-MICA*007 and C1R-MICA*008 (Pr. A. Steinle, Eberhard-Karls University Tuebingen, Germany) described in Salih et al. (2003) Blood 102(4): […]. Binding was analyzed by flow cytometry.
# (§3) Cells were harvested and stained in PBS 1×/BSA 0.2%/EDTA 2 mM buffer during 30 minutes at 4° C. using a dose-range of the anti-MICA mAbs. After two washes in staining buffer, cells were stained for 30 min at 4° C. with mouse anti-human IgG1-PE monoclonal antibodies (1/11). After two washes, stainings were acquired on a BD FACS Canto II and analyzed using the FlowJo software.
# (§4) Antibodies CHG1-M-MIA-19E9, CHG1-M-MIA-9C10, CHG1-M-MIA-6E4, CHG1-M-MIA-20C6, CHG1-M-MIA-12A10, CHG1-M-MIA-10A7, CHG1-M-MIA-18E8, CHG1-M-MIA-10F3, and CHG1-M-MIA-15F9 bound to each of the C1R-MICA*001, C1R-MICA*004, C1R-MICA*007 and C1R-MICA*008 cells (see FIG. 1A for antibodies CHG1-M-MIA-19E9, CHG1-M-MIA-9C10, CHG1-M-MIA-6E4, CHG1-M-MIA-20C6, CHG1-M-MIA-12A10, CHG1-M-MIA-10F3, and FIG. 1B for antibodies, CHG1-M-MIA-18E8, CHG1-M-MIA-15F9, CHG1-M-MIA-10A7). […] EC50 values are shown in Table C in μg/ml (calculated using a 4-parameter logistic fit).
row,EC50 [µg/mL],Binder
1,0.05,B1
2,2.67,B2
3,0.44,B3

# Molecular target: T5, MICA*001 expressed at the cell surface
# Assay: as above
# Experimental: as §2, §3, §4
row,EC50 [µg/mL],Binder
1,0.26,B1
2,1.96,B2
3,1.07,B3
